Test: yeast display, Sf9 membrane polyspecificity reagent, FACS + sequencing; frameworks hold sequencing errors
In short: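 Nanobodies from a synthetic yeast display library (Saccharomyces cerevisiae BJ5465), induced 36–48 hours with galactose, were stained 1 hour at 4 °C with 10% biotinylated, detergent-solubilized Sf9 membrane reagent, enriched on streptavidin microbeads, then FACS-sorted. Anti-HA (expression) and streptavidin (reagent binding) fluorescence set low and high (top ~1%) gates. Polyreactivity labels come from the gate of origin. Genes were colony-PCR amplified, MiSeq 2 × 250 sequenced and filtered by CDR length.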

Row | Sequence | polyreactivity (PSR sort gate)
1 | QVPLVESGGGLLQAGGSLRLSCSASGYTFSKYAMGWYRQAPGKERELVAAISFSGGSTYYADSVKGRFTISRDNAKNTVYLLMNSLKPEDTAVYYCDKYTITNYDYWGQGTLVTVSS | low polyreactivity
2 | QVQLVESGVGLVQAGGSLRLSCAASGSIFEYYTMGWYRQAPGKERELVAAISSDGSTNYADSVTGRFTISRDDAKTTVYLQMISLKPEDTAVDYCASSTSRFYYYRKRGYWGQGTQVTVSS | low polyreactivity
3 | QVQLVESGGGLVQAGGSLRLSCAASGSIFYSNFMGWYRQAPGKERELVARITDAGSTNYADSVKGRFTISRDNAKNSVYLQMNSLKPEDTAVYYCNARLVIYTYDYWGQGTQVTVSS | low polyreactivity
4 | QVQLVESGGGLVQAGGSLRLSCAASGIIFYEYAMGWYRQAPGKERELVAVITSGGTTNYADSVKGRFTISRDNAKNTVYLQMNSLKPEDTAVYYCAADVYWEFSPEYDYWGQGTQVTVSS | low polyreactivity
5 | QVQLVESGGGLGQAGGSLRLSCAASGSTFKFYAMGWYRHAPGKERELVATISWTGGSTYYADSVKGRFTISRDNAKNTVYLQTNSLKPEDTAVYYCANRKTSYPVIWYTVNGRHYYWGQGTQVTVSS | low polyreactivity
6 | QDQHVESGGGLVQAGGSLRLSGAASGGTLWVNTMGWYRPAPGKERELVAAISRRGGSTYYADSVKGRFTISRDNAKNTVYLQMNSLKPEDTAVYYCAKGYSSHYWWAYDSWGQGTLVTVSS | high polyreactivity
7 | QVQLVESGGGLVQAGGSLRLSCAASGRTFDYNAMGWYRPAPGKERELVAAISRSGGSTYYADSVKGRFTISRDNAKNTVYLQMNRLKPEDTAVYYCAADNYYLFALYEYGYWGQGTQVTVSS | high polyreactivity
8 | QVQLEESGGGLVQAGGSLRLSCAASGSTFYLYDMGWYRQAPGKERELVAVISWSGGSTSYADSVKGRFTISRDNAKNTIYLQMNSLKPEDTAVYYCNTDFYHWGQGTQVTVSS | low polyreactivity
9 | QVQLVESGGGLVQAGGSRRLSCAASGIIFTRNSMGWYRQAPGKERELVAAISRSGGRTYYADSVKGRFTISRDNAKNTVYLQMNSLKPEDTAVYYCYPRDKNLQAYDYWGQGNQVTVSS | high polyreactivity
10 | QVQLVESGGGLVQAGGSLRLSCAASGRIFSDYAMGWYRQAPGKERELVAAISRSGTRTYYADSVKGRFTISRDNAKNTVYLQMNSLKPEDTAVYSCAAKTPYGRAGQEEDYCGQGTQVTVSS | high polyreactivity
11 | QVQLVESGGGLVQAGGSLRLSCAASGFTFAGNAMGWDRPAPGKERELVAGISRRGGNTYYADSVKGRFTISRDTAKNTVYLQMNRLKPEDTAVYYCARYSSSYWGQGTQVTVSS | high polyreactivity
12 | QVQLVESGGGLVQAGGSRRLSCAASGRSFTRYAMGWYRQAPGKERVLVAAITSSGRTYYADSVKGRFTISRDNAKNTVYLQMNRLKPEDTAVYYCAKYRANALNYANRGAGDYWGQGTQVTVSS | high polyreactivity
13 | QVQLVESGGGLVQAGGSLRLSCAASGSIFVYNAMGWYRQAPGKERELVAAISSSGGSTYYADSVKGRFTISRDNAKNTVYLQMNSLKPEDTAVYYCAAEAVRKVPSYYSYAYYYWGQGTQVTVSS | high polyreactivity
14 | QVQLVESGGGLVQAGGSLRLSCAASGRILLRYAMGWYRQAPGQERELVAAISQRGGRTYYADSVKGRFTISRDNAKNTVNLQMNSLKPEDTAVYYCAAASQQRSPRYGYWGQGTQVTVSS | high polyreactivity
15 | QGQLVESVGGLVQAGVSLRLSCAASGRIFPSYAMGCYRPAPGKERELVAAISSSGGRTYYADSVKGRFTISRDNAKNTVYLQMNSLKPEDTAVYYCAARWVHYGVRYDYWGPGTQVTVSS | high polyreactivity
16 | QVQLVESGGGLVQARGSLRLSCAASGFTFSRYAMGWYRQAPGKERELVAAITRSGGSTYYADSVKGRFTISRDNAKNTVYLQMNSLKPEDTAVYYCAKRAASGFRWDSGYWGQGTQVTVSS | high polyreactivity
17 | QVQLVESGGGLVQAGGSLRLSCAASGITIRYNAMGWYRQAPGKERELVAAISRGGDRTYYADSVKGRFTISRDNAKNTVYLQMNSLKPEDTAVYYCAADWSEKYEYWGQGTQVTVSS | high polyreactivity
18 | QVQLVESGGGLVQAGGSLRLSCAASGSTFYTYTMGWYRPGPGKEMELVAAISSSGGDTYYADSVKGRFTISRDNAKNTVYLQMNSLKPEDTAVYYCAALGAFPSLEFDYWGQGTQVTVSS | low polyreactivity
19 | QVQLVESGGGLVQAGGSLRLSCAASGRIFVGYAMGWYRQAPGKERELVAAITGSGGGTYYADSVKGRFTISRDNAKNTVYLQMNSLKPEDTAVYYCAATGYLKVRGYYAWHFYYWGQGTQVTVSS | high polyreactivity
20 | QVQLVESGGGLVQAGGSLRLSCAASGRTFRGYAMGWYRQAPGKERELVAAISSGGSTYYADSVKGRFTISRDNAKNTVYLQMNSLKPEDTAVYYCAVAYYPHGREGAHFQYGYDYWGQGTQVTVSS | low polyreactivity
21 | QVQLVESGGGLDQAGGSLRLSCAASGYTFFSNAMGWYRQAPGKERELVAAITFSGGSTYYADSVKGRFTISRDNAKNTVYLHMNSLKPEDTAVYYCATRYYYHYPRKHIYNYWGQGTQVTVSS | high polyreactivity
22 | QVQLVESGGGLVQAGGSLRLICAASGIIFRYYAMGWYRQAPGKERELVASISRGGSTYYADSVKGRFTISRDNAKNTVYLQMNSLKPEDTAVYYCAADVYPVYLYGYEYCGQGTQVTVSS | high polyreactivity

Row | Sequence | polyreactivity (PSR sort gate)
23 | QVQLEESGGGLVQAGGSLRLSCAASGIIFSYYDMGRYRQAPGKERELVATITRKGGSTYYADTVKGRFTISRDYAKNTVYFQMNSLKPEDTAVYYCAAQTTVYIYDYWGQGSQVTVSS | low polyreactivity
24 | QVQLVESGGGLVQAGGSLRLSCAASGGTFSSNAMGWYRQAPGKERELVAAISGSGDRTYYADSVKGRFTISRDNAKNTVYLQMNSLKPEDTAVYYCAAEHETGAYYYWGQGTQVTVSS | high polyreactivity
25 | QVQLVESAGGLVQAGGRLSLICAASGYTFYYHAMGWYRQAPGKERELVASIRSRGRSTYYADSVKGRFTISRDNAKNTVYLQMNSLKPEDTAVYYCAALPNKPAVYAYDYWGQGTQVTVSS | low polyreactivity
26 | QVQLVESGGGLVQAGGSLRLSCAASGSIFTYAMGWYRQAPGKERELVAAITYSGGRTDYADSVKGRFTISRDNAKNTVYLQMNSLKPEDTAVYYCAVRARPYPYYGALMYYWGQGTQVTVSS | low polyreactivity
27 | QVQLVESGGGLVQAGGSLRLSCAASGYTFSFYAMGWYRQATGKERELVADISRSGGSTYYADSVKGRFTISRDNAKNTVYLQMNSQKPEDTAVYYCAARWPGAYHEYGYLGQGTQVTVSS | high polyreactivity
28 | QVQLVESGGGLVQAGGSLRLSCAASGFIFSSYAMGWYRQAPGKERELVAAISRSGGRTNYADSVKGRFTISRDNAKNTVYLQMNSLKPDDTAVYYCNARGRGKYPPYGYDYWGQGTQVTVSS | high polyreactivity
29 | QVQLVESGGGLVQAGGSLRLSCAASGSIFKYNAMGWYRQAPGKERELVATITSSGSTTYYADSVKGRFTISRDNAKYTVYLQMNSLKPEDTAVYYCNARYSYRRDYWGQGTEVTVSS | high polyreactivity
30 | QVQLVESGGGLVQAGGSLRLSCAASGRIFSYNVMGWYRQAPGKERELVAAITSNDGSTYYADSVKGRFTISRDNAKNTVYLQMNSLKPEVTAVYYCNADYGPVSLKEPFRDDYWGQGNQVTVSS | low polyreactivity
31 | QVQLVESGGGLVQAGGSLRFSCAASGRTFYVYALGWYRQAPGKERELVARIRGRGGITFYADSVKGRFTISRDNAKNTVYLQMNSLKPEDTAVYYCAADFRSNYDYWGQGTQVTVAS | high polyreactivity
32 | QVQLVESGGGLVQAGGSLRLSCAASGSTFSIYAMGWYRQAPGKERELVAAISSDSTYYADSVKGRFTISRDNAKNTVYLQMNSLKPEDTAVYYCAADPYFPKYYYWGQGTQVTVSS | low polyreactivity
33 | QVQLVESGGGLVQAGGSLRLSCAASGRIFSTYAMGWYRQAPGKERELVAAINKIGGSTYYADSVKGRFTISRDNAKNTVYLQMNSLIPEDTAVYYCAADAPYYPVRRYYYWGQGTQVTVSS | low polyreactivity
34 | QVQLVESGGGLVQAGGSLRLSCAASGGIFARNVMGWYRQAPGKERELVAAISGSGGSTYYADSVKGRFTISRDNAKKTVYLQMNSLKPEDTAVYYCAARTPGVSVYKDGYWGQGTQVTVSS | low polyreactivity
35 | QVQLVESGAGLVQAGGSLRLSCAASGSTFVINAMGWYRQPPGKEREFVADIDYRGGSTNYADSVKGRFTISHDNAKNTFYLQMNSLKPEDTAVYYCAAARVTIRSSHWSVDYWGQGTQVTVSS | low polyreactivity
36 | QVQLVESGGGLVQAGGSLRLTSADSGRTFYKYAMGWYIQAPGKERELVAANSQSGGSTYYADSVNGRFTISRDNAKNTVYLQMNSLKPEDTAVYYCAARRLPRKERKLYYWGQGSQVTVSS | high polyreactivity
37 | QVQLVESGGGLVQAGGSLRLICAASGSTSWINAMGWYIQAPGKERELVAAISGRDGSTNYADSVKGRFTISRDNAKNTVYLLMNSLKPEDTAVYYCNANGRRFNRYGGDYWGLGTQVTVSS | high polyreactivity
38 | QVQLVESGGCLVQAGGSLRLRCAASGRIFLRYDMGWYRQAPGKERELVAAISSGASTYYADSVKGRFTISRDNAKNTVYLQMNSLKPEDTAVFYCAVDRPYYYGYRMDYWGQGSQVTVSS | low polyreactivity
39 | QVQLVESGGRLVQAGGSLRLSCAASGIIFPYNTMGWYRQSPGKERELVASIDDGGSTNYADSVKGRFTISRDNAKNTVYLQMNSLKPEDTAVYYCNADLFFIYVRQPGYDYWGQGTQVTVSS | low polyreactivity
40 | QVQLVESGGGLVQAGGSLPLSCAASGRIFAFNVMGWYRQAPGKERELVAAISTRDGSTYYADSVKGRFTISRDNAKNTVYLQMNSLTPEDTAVYYCNAVVRYYDWGYWDYDYWGQGTQVTVSS | low polyreactivity
41 | QVQLVESGGGLVQAGGSLRLSCAASGRTFFKIAMGWYRQAPGKERELVASISSRSGTTYYADSVKGRFTISRDNAKNTVYLQMNSLKPEDTAVYYCAASRNRYSYGYWGQGTQVTVSS | high polyreactivity
42 | QDQLEESGGGLVQAGGSLRLICAAYGSTFVLYDMGWYRQEPGKERELVADISYSGGSTYYEDSVKGRFTISRDNAKYTVYLLMKRLIPEDTAFYYCIAGVLVLLYAYLPSELEYWGQGTQVTVSS | low polyreactivity
43 | QVQLVESGGGLVQAGGSLRLSCAASGRIFLYYAMGWYRQAPGKERELVAAISRRGASTYYADSVKGRFTISRDNAKNTVYLQMNSLKPEDTAVYYCATVPGKSGDYWGQGTQVTVSS | high polyreactivity
